Measured values reported in US20240424106A1, “CONJUGATE PHARMACEUTICAL PREPARATION, PREPARATION METHOD THEREFOR AND USE THEREOF” (COHERENT BIOPHARMA (SUZHOU) LIMITED, priority 2021, published 2024).

How the values were obtained:
[1] = Screening of amount of pH regulator: dissolution in intermediate solutions; type: physicochemical; settings: 0.5% sodium citrate solution after mannitol was added and CR19213 was dissolved
Description: The solubility of CR19213 is related to the pH value of a solution, and the amount of the pH regulator (expressed as the concentration of a buffer salt) directly influences the pH value of the solution. Therefore, the concentration of the buffer salt needs to be screened. Since CR19213 was added to the sodium citrate solution with pH 7.0, and completely dissolved to form an acidic solution, a 1.0% sodium citrate solution (11.4 mg/mL) with pH 7.5 (regulated with citric acid) was prepared in order to make the finished product be more near-neutral, and diluted with water to obtain sodium citrate solutions at concentrations of 0.1%, 0.25%, and 0.5%, respectively. Intermediate solutions were prepared using the above-mentioned sodium citrate solutions with different concentrations. The dissolution in the intermediate solutions during the preparation were investigated.
(1) a 1.0% sodium citrate solution with pH 7.5 (regulated with citric acid) was prepared for later use;
(2) dilution was carried out with water to obtain 0.1%, 0.25% and 0.5% sodium citrate solutions, respectively;
(3) a prescribed amount of mannitol was weighed, 70% of the total amount of the sodium citrate solution was added, stirring was carried out for dissolution, then a prescribed amount of CR19213 was added, and stirring was carried out for dissolution in a dark place at room temperature; and […]

[2] = Stated solubility and sensitivity of CR19213

CCC(C)C(C(CC(=O)N1CCCC1C(OC)C(C)C(=O)NC(C)C(O)c1ccccc1)OC)N(C)C(=O)C(NC(=O)C(C(C)C)N(C)C(=O)OCc1ccc(NC(=O)C(CCCNC(N)=O)NC(=O)C(NC(=O)CCCCCN2C(=O)CC(SCC(NC(=O)C(CCCCN)NC(=O)C(CC(=O)O)NC(=O)C(CC(=O)O)NC(=O)Cc3ccc(CNC(=O)NCCCCC(NC(=O)NC(CCC(=O)O)C(=O)O)C(=O)O)cc3)C(=O)NC(CCCCNC(=O)CCC(NC(=O)c3ccc(NCc4cnc5[nH]c(N)nc(=O)c5n4)cc3)C(=O)O)C(N)=O)C2=O)C(C)C)cc1)C(C)C (stereo not drawn) [CR19213]
pH value [1]: 5.95
Oxidation in solution [2]: easily oxidized
Sensitivity to temperature [2]: sensitive
Solubility in water [2]: poorly soluble
Stability to acids and alkalis [2]: unstable
Sensitivity to illumination ([2]; raw material): sensitive
